This sample holds only a part of the variants without activity.
B1: TPR 5TU (parent)
chain: GGAUCUUCUCGAUCUAACAAAAAAGACAAAUCUGCCACAAAGCUUGAGAGCAUCUUCGGAUGCAGAGGCGGCAGCCUUCGGUGGCGCGAUAGCGCCAACGUUCUCAACUAUGACACGCAAAACGCGUGCUCCGUUGAAUGGAGUUUAUCAUG

Variants of: B1
Assay: polymerase ribozyme fitness, log enrichment relative to wild type (log ratio); higher = more active; in vitro selection for triplet polymerase activity
How it was run: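 Fitness compares each genotype's enrichment to that of the wild type on a logarithmic scale, averaging replicates with inverse-variance weights. The logarithm is base 2. Enrichment came from Illumina sequencing of input and output libraries after one triplicate round of in vitro selection, which included frozen incubation at −7 °C, of PCR-built, transcribed mutant libraries of each subunit of a heterodimeric triplet polymerase ribozyme. Only genotypes with ≥10 input reads and ≥1 read per output were kept.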

Variant	polymerase ribozyme fitness (log ratio)
C8G C10A A30C U56A C57G C87U U102G G143C	≤ -4.2
C8G A29C G42C	≤ -4.2
C8A U53A G81C C85G C108U A138G A147G A150U G152U	-3.5
C8A C43U G46A A73G C85U U134G U151A	≤ -4.2
C8G A47C C54G	≤ -4.2
C8G C18G C57G G83U C118U G128A	≤ -4.2
C8U A12G A28C C38U C57G C95U	≤ -4.2
C8A U9C A30U C87U C95U C129A	≤ -4.2
C8U C57U A60C A97U A115U	≤ -4.2
C8G A30G G48A C69G G86A G143U	-4.06
C8A G84A	-3.28
C8G C43U G88C C93A U146G	≤ -4.2
C8A U13G A21G A28G G68U G81A C118G G143U	≤ -4.2
C8G G50C U55C G100A A115G U127C	≤ -4.2
C8U A19C A40G C96U A142U	≤ -4.2
C8G A12C A23G A52U C57U C93A C95G A110U	≤ -4.2
C8U A28U U53A G67A C69U G88C A89U A98G A138C	≤ -4.2
C8G C79A A91U A107C G124C U144C	≤ -4.2
C8U A24U A30U U90A G92C	≤ -4.2
C8G A29C U55G A60G C85G A89G G140C	≤ -4.2
C8G U61G G81A C87U G92C A121G C132A U144A G152A	≤ -4.2
C8A G50U	-3.79
C8G U44A A52C C75A A91G U148G	≤ -4.2
C8G A20C A73U C99G A106G G140A U144G A147C	≤ -4.2

Variant	polymerase ribozyme fitness (log ratio)
C8G C125A	-3.82
C8U A37C C93A U151G	≤ -4.2
C8G G11A A52G A89U C93G	≤ -4.2
C8G C10U C51A G80C C95A U102G G124U A137C	≤ -4.2
C8G G94A C103U G128C U134A	≤ -4.2
C8U A16U A49C A73C C85U C108G	≤ -4.2
C8G A16U A20U C79U C85U A115C	≤ -4.2
C8G C35U A40U C95U C149A	≤ -4.2
C8U A16C U53A C54A G71C G141C U148C C149U	≤ -4.2
C8U C38U A49G C79G C93A C103G G136U	≤ -4.2
C8G A28U C87U C105U	≤ -4.2
C8U A41C U44G G81C G92U C93G	≤ -4.2
C8G C27G C36G A39C C85A	≤ -4.2
C8G U15G A21G G83U A91G C105U U144C U148A	≤ -4.2
C8G C125U G141C	≤ -4.2
C8G G34U A73C C85G U148G	≤ -4.2
C8G A29G A60U U77A C93A C123U	≤ -4.2
C8G G84U G100U C132U U144A	≤ -4.2
C8G C18U C38U G50C C54U G65C C87U C99G	≤ -4.2
C8A G48A G92C	≤ -4.2
C8A C27U U44G A49C C72G C79A G92A G143U	≤ -4.2
C8U A12G A28U G74A G81A C99U	-4.18
C8G C116G	-3.15
C8A G11A C63U G83C U130G G152C	≤ -4.2

Variant	polymerase ribozyme fitness (log ratio)
C8G C35G C105G U144A	≤ -4.2
C8U C43U C85U G100A A142U	≤ -4.2
C8U A26U A120G C125U	≤ -4.2
C8U A20G U33A U56A C95A C131A	≤ -4.2
C8G G42C G50C A91C C93A	≤ -4.2
C8A U56A A66C G94A A98U	≤ -4.2
C8U A106G	-2.98
C8U A52C G68C	≤ -4.2
C8U A19U G62A G86C A113C	≤ -4.2
C8A U55A A66C G67U U77A C99U C108U G133C G136A	≤ -4.2
C8U A20G	-3.94
C8G C14A A39C G74U G143U	≤ -4.2
C8A G58C	-4.1
C8G A23U A30U G42C G83C A97U	≤ -4.2
C8G A23U C27G A40G A49C C87U U104G U134G G140A	≤ -4.2
C8G A16U C79G G141A	≤ -4.2
C8U A22U C27U G70A C85A A89U G92U	≤ -4.2
C8U A28U G58A G74C U127G G133C A142U C149G	≤ -4.2
C8G C14U A29U G50U C54U C75G A119U	≤ -4.2
C8G A20C G67C G68C A113U	≤ -4.2
C8A G48C U55A	≤ -4.2
C8A U56A C79U G84C G112A C131U U146A	≤ -4.2
C8G A29C G34C U78G G86U A97C C149U	≤ -4.2
C8U A12G A52G A98U	-2.99

Variant	polymerase ribozyme fitness (log ratio)
C8U C54U U56C C85A G92C	≤ -4.2
C8A G92C	-3.68
C8U A17C A28G C35U C76A C96U U144G	-3.75
C8G C85U G88U U145C	≤ -4.2
C8G A52C U55C G65A G83U C105U G143U	≤ -4.2
C8G A12G G42C U82A C95U C108U G136A G143A A150U	≤ -4.2
C8U A21C G25U A97U	≤ -4.2
C8G A24G U33G G59A G71A G74A U144C	≤ -4.2
C8G G143C	-4.08
C8U C10G A29U C85U C116U	≤ -4.2
C8U C27G A40G U78G C85G A98C A150G	≤ -4.2
C8G C35U C85G G88U U134A	≤ -4.2
C8U A98U U135G U148C	≤ -4.2
C8U C75A G86U A91U A122G G136A	≤ -4.2
C8U A21G A41C G50A G65C G88A	≤ -4.2
C8A C35U C43A G83C G141U	≤ -4.2
C8G U13C A17U A29U C38U U44A G84U C87G G92A G140A	≤ -4.2
C8G U13G C116G	-3.71
C8U A73U	-3.97
C8A G42A G59U G67C	≤ -4.2
C8G C93U	-3.64
C8G G11A A17U G71U G88U U127C U135G U148C A150C	≤ -4.2
C8U A20U G46C G59U A60C C63U G83U C87U A97U U145A	≤ -4.2
C8U A41C G46C G71A G83U C116G	≤ -4.2

Variant	polymerase ribozyme fitness (log ratio)
C8G A17C C18G A41C A52U G83A G140U	≤ -4.2
C8G C54G C85U A121U C131A G136U A137G	≤ -4.2
C8G G11U U31A U90G A137C A150U	-4.16
C8G C14A A30C C69U C76G A98U U144G	≤ -4.2
C8G A24U A29G C54G C57U G94A A98G U135G	≤ -4.2
C8A C93A	≤ -4.2
C8A C93U	-3.42
C8U A29G A52G U56A U127G	≤ -4.2
C8A U44A C51A A66G C85U U130G	≤ -4.2
C8G G83A A97U U127A	≤ -4.2
C8U A52G C85A A119U U130G	≤ -4.2
C8U C18G C35A U53A G58C	≤ -4.2
C8A U31G C36U C114U A142C	-4.19
C8U A24C C36U G48A C95G C105U U145A	≤ -4.2
C8A U13G G50C C76G C118A	≤ -4.2
C8A C27U U56C U111C A138G	≤ -4.2
C8G G71A G74A C79U C87A C116A	≤ -4.2
C8U A22U U56A A73G A121G C123U	-4.16
C8G A24G C54U G68A G71A A91U C95A	≤ -4.2
C8A G88A	≤ -4.2
C8U C43U G48C U55A G92C	≤ -4.2
C8G A22C A24U C69U A73U C93U	≤ -4.2
C8G C54U G59C G81U C96A U144C	≤ -4.2
C8U A19C G50A C96U	≤ -4.2

Variant	polymerase ribozyme fitness (log ratio)
C8A G88U G92U C95U A106C U127G	≤ -4.2
C8G C57U G59A C69G G88U C96G A120U	≤ -4.2
C8U A40C A41G G50A U56A C93A	≤ -4.2
C8U C35A C72U C76U G88A G92U A121U	≤ -4.2
C8A C57U G67C C95A A97G U151A	≤ -4.2
C8U C38U G48A A60C C72G C96A C99U C114G U139G U148G	≤ -4.2
C8G G25C U33C C93U G124C	≤ -4.2
C8A U56A A60U C93A U109G A113U U139G U145C A147G	≤ -4.2
C8U A47G	-3.73
C8G U31A G34U C57G C93G	≤ -4.2
C8U C27U A115G	-4.06
C8U A28U G62U A113C	≤ -4.2
C8U A66C C93U G124A	≤ -4.2
C8A G58C U82A A98G G136U	≤ -4.2
C8U A28G G34A C36U G86U A91G A110U	-4.19
C8G U53C G58C C79U A89G U139C	≤ -4.2
C8A C32G A40U A52U A73U A91U	≤ -4.2
C8U C43G A47U A64G G70A C79G C99G U135C G136C U145A	≤ -4.2
C8G G48C G80U G84U C125U G141U	≤ -4.2
C8G A21C G94C C99A	≤ -4.2
C8A U144C	-4.16
C8U C27A A29U A66U G67A A120U U134A	≤ -4.2
C8G U55A	-2.91
C8U A22C A26C G50C C85A C116U C118A	≤ -4.2

Variant	polymerase ribozyme fitness (log ratio)
C8U A17G G84U G133C	≤ -4.2
C8G U13C A16G A52G G83A U101G G126A	≤ -4.2
C8G A30G C35U G65U G94U U135C U144G	≤ -4.2
C8A G25U U31A U82C C118G U145C	≤ -4.2
C8G G84U	≤ -4.2
C8U C38G G92U C95U C99U U104A U145G	≤ -4.2
C8G A17G G25A C54G G71C C87U U90A C96U C132U	≤ -4.2
C8A C85U	-2.6
C8A U15G C18U G58C C96G	-3.95
C8A G11C A29U C95G	≤ -4.2
C8U A16G A21G A40U	-4.04
C8A G11A G50C U82A G83C	≤ -4.2
C8A U55A G88A G133C G136A U139A G143C	≤ -4.2
C8A U55A G84U C85A	≤ -4.2
C8U A30U U44A A97G U101G A113G C132U C149G A150U	≤ -4.2
C8G A12U G25A A28U A39C G58C G94U U144G	≤ -4.2
C8G U82A C85A A91U C96U G117C	≤ -4.2
C8G A24G A30G G70A G136C	≤ -4.2
C8G G92C	-3.1
C8G C14G C18G C96U A137U	≤ -4.2
C8G A20G U44G G48U G84U G128U U144A	≤ -4.2
C8G U55G C72U G84U G136A	≤ -4.2
C8U A19C A40G C57U G92U G140A U146A	≤ -4.2
